Assay results reported in article PMC9677429, “The Role of Electrostatic Interactions in IFIT5-RNA Complexes Predicted by the UBDB+EPMM Method”.
Where “and” joins values, the source holds several entries; their conditions need not be identical. Identical values can stand only once.

Key:
Details in all cases: protein: recombinant; tags: N-terminal His tag (pETG10a); label: 3'-Cy5; single strand, 12 nt
[1] = target: T1, IFIT5 Q41E/K150M/R253M (UniProt Q13325 1-482, Q41E;K150M;R253M); assay: MST; apparent; replicates with and without 1 mM Mg2+ pooled; MST: PBS, 5% glycerol, 0.5 mM TCEP, 0.05% Tween20, +/-1 mM MgCl2 (K150M always with 1 mM MgCl2), 10 nM Cy5-RNA, 22 C, 10 min incubation; pH not stated
T1 sequence: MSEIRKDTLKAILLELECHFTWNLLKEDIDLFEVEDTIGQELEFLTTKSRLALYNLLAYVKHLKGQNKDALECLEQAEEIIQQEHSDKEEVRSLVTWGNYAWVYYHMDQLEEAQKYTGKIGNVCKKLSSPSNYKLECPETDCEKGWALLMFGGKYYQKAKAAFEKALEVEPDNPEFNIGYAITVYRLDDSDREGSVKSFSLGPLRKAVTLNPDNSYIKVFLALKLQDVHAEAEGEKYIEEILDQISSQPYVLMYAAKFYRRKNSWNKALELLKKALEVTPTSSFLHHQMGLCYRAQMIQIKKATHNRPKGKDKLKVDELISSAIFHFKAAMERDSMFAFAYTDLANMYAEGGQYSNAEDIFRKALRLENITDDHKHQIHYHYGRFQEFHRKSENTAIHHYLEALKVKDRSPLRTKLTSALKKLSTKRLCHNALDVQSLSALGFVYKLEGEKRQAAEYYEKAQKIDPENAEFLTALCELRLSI

[2] = target: T2, IFIT5 WT (UniProt Q13325 1-482); assay: as above
T2 sequence: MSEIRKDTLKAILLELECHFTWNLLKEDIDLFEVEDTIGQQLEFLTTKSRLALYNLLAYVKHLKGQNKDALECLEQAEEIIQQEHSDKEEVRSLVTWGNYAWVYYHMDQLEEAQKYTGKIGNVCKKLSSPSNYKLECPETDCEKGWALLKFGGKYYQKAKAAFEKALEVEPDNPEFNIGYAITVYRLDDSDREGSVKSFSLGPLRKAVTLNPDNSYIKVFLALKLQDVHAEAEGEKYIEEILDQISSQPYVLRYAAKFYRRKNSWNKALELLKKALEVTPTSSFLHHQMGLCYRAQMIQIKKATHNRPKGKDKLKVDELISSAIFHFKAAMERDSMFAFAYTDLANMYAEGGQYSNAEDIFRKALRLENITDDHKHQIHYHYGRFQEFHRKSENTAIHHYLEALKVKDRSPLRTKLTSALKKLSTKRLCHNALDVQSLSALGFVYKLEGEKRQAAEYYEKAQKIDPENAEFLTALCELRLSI

[3] = target: T1, IFIT5 Q41E/K150M/R253M; assay: MST; apparent, single replicate; 1 mM Mg2+ (assignment by word order); MST: PBS, 5% glycerol, 0.5 mM TCEP, 0.05% Tween20, +/-1 mM MgCl2 (K150M always with 1 mM MgCl2), 10 nM Cy5-RNA, 22 C, 10 min incubation; pH not stated
[4] = target: T2, IFIT5 WT; assay: as above
[5] = target: T1, IFIT5 Q41E/K150M/R253M; assay: MST; apparent, single replicate; no Mg2+ (assignment by word order); MST: PBS, 5% glycerol, 0.5 mM TCEP, 0.05% Tween20, +/-1 mM MgCl2 (K150M always with 1 mM MgCl2), 10 nM Cy5-RNA, 22 C, 10 min incubation; pH not stated
[6] = target: T2, IFIT5 WT; assay: as above
[7] = target: T3, IFIT5 K150M (UniProt Q13325 1-482, K150M); assay: MST; apparent; 1 mM Mg2+; MST: PBS, 5% glycerol, 0.5 mM TCEP, 0.05% Tween20, +/-1 mM MgCl2 (K150M always with 1 mM MgCl2), 10 nM Cy5-RNA, 22 C, 10 min incubation; pH not stated
T3 sequence: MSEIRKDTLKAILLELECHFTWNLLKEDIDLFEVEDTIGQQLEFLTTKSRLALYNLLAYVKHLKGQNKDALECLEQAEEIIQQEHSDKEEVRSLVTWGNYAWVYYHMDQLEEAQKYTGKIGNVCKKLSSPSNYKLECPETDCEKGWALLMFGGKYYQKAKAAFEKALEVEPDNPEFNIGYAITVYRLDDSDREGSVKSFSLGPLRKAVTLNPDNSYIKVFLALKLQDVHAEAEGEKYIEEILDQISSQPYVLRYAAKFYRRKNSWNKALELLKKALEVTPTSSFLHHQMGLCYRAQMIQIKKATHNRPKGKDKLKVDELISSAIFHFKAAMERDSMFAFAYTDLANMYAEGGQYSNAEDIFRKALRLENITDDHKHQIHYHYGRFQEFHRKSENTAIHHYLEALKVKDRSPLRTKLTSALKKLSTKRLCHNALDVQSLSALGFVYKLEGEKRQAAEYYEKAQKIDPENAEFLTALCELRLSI

## AAAAAGGAAGGU (ssRNA, 5'-triphosphate) [5'-ppp-AAAAAGGAAGGU-Cy5]
[1]
  Kd: 1980 nM
[2]
  Kd: 13.4 nM
[3]
  Kd: 2340 nM
[4]
  Kd: 12.7 nM and 13.7 nM and 23 nM
[5]
  Kd: 1700 nM
[6]
  Kd: 8.87 nM
[7]
  Kd: 204 nM
